# Laboratory results: the supplement of paper PMC9112550, “Optimization of the antimicrobial peptide Bac7 by deep mutational scanning” (BMC Biology, 2022)
# System: Escherichia coli TOP10
# Experiment: shrunken log2 fold change of peptide-encoding DNA abundance (4.5 h post-induction vs induction); higher = less antimicrobial activity (less host growth inhibition)
# Conditions: time post-induction: 4.5 h; library: site-saturation at positions 5, 18, 19, 20
# 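Note: peptides expressed intracellularly from a pBAD plasmid library in pooled LB shake-flask culture, induced with 0.3% L-arabinose, DNA abundance read by NGS, three biological replicates, DESeq2 with apeglm shrinkage.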
row,Sequence,shrunken log2 fold change
1,RRIRARPPRLPRPRPRPVQGPRP,0.47
2,RRIRKRPPRLPRPRPRPRIKPRP,0.185
3,RRIRYRPPRLPRPRPRPCVNPRP,-0.177
4,RRIRLRPPRLPRPRPRPLEHPRP,0.0313
5,RRIRQRPPRLPRPRPRPVYEPRP,-0.0143
6,RRIRNRPPRLPRPRPRPHEFPRP,-0.13
7,RRIRYRPPRLPRPRPRPIYMPRP,-0.22
8,RRIRQRPPRLPRPRPRPQRGPRP,0.235
9,RRIRWRPPRLPRPRPRPNGKPRP,0.123
10,RRIRPRPPRLPRPRPRPGEDPRP,0.461
11,RRIRPRPPRLPRPRPRPNVQPRP,0.0803
12,RRIRPRPPRLPRPRPRPMQLPRP,0.406
13,RRIRSRPPRLPRPRPRPTTCPRP,0.0283
14,RRIRMRPPRLPRPRPRPAKYPRP,-0.111
15,RRIRRRPPRLPRPRPRPSLPPRP,0.44
16,RRIRTRPPRLPRPRPRPLPEPRP,0.126
17,RRIRKRPPRLPRPRPRPNQEPRP,-0.0316
18,RRIRGRPPRLPRPRPRPTMCPRP,0.805
19,RRIRGRPPRLPRPRPRPASNPRP,0.375
20,RRIRHRPPRLPRPRPRPEQPPRP,-0.0288
21,RRIRMRPPRLPRPRPRPNLQPRP,-0.0416
22,RRIRCRPPRLPRPRPRPHSEPRP,-0.319

row,Sequence,shrunken log2 fold change
1,RRIRDRPPRLPRPRPRPYDHPRP,-0.361
2,RRIRHRPPRLPRPRPRPYRFPRP,-0.269
3,RRIRLRPPRLPRPRPRPHYTPRP,-0.118
4,RRIRVRPPRLPRPRPRPLLAPRP,0.343
5,RRIRSRPPRLPRPRPRPPHVPRP,0.113
6,RRIRQRPPRLPRPRPRPEEAPRP,0.188
7,RRIRGRPPRLPRPRPRPKDEPRP,0.696
8,RRIRWRPPRLPRPRPRPQQRPRP,-0.102
9,RRIRTRPPRLPRPRPRPNLIPRP,-0.408
10,RRIRERPPRLPRPRPRPAHAPRP,0.117
11,RRIRVRPPRLPRPRPRPMQTPRP,0.00859
12,RRIRKRPPRLPRPRPRPFVTPRP,-0.0435
13,RRIRVRPPRLPRPRPRPQGCPRP,-0.0651
14,RRIRPRPPRLPRPRPRPMTFPRP,-0.0264
15,RRIRGRPPRLPRPRPRPFVQPRP,0.0324
16,RRIRRRPPRLPRPRPRPNDAPRP,-0.0546
17,RRIRYRPPRLPRPRPRPGTWPRP,0.585
18,RRIRHRPPRLPRPRPRPEQYPRP,-0.224
19,RRIRLRPPRLPRPRPRPGWAPRP,0.691
20,RRIRIRPPRLPRPRPRPYICPRP,-0.393
21,RRIRWRPPRLPRPRPRPLFNPRP,-0.711
22,RRIRLRPPRLPRPRPRPNLPPRP,-0.508

row,Sequence,shrunken log2 fold change
1,RRIRHRPPRLPRPRPRPRTEPRP,0.218
2,RRIRHRPPRLPRPRPRPKELPRP,-0.00676
3,RRIRTRPPRLPRPRPRPHCNPRP,-0.453
4,RRIRIRPPRLPRPRPRPRNAPRP,0.0687
5,RRIRKRPPRLPRPRPRPCIFPRP,-0.0101
6,RRIRGRPPRLPRPRPRPAITPRP,0.721
7,RRIRPRPPRLPRPRPRPPNPPRP,0.453
8,RRIRLRPPRLPRPRPRPWKPPRP,-0.0142
9,RRIRARPPRLPRPRPRPNGIPRP,-0.109
10,RRIRGRPPRLPRPRPRPLMNPRP,0.303
11,RRIRHRPPRLPRPRPRPPQFPRP,0.0105
12,RRIRERPPRLPRPRPRPNYYPRP,-0.893
13,RRIRMRPPRLPRPRPRPFFVPRP,-0.0457
14,RRIRRRPPRLPRPRPRPDFTPRP,0.0748
15,RRIRWRPPRLPRPRPRPFHDPRP,-0.285
16,RRIRQRPPRLPRPRPRPEKAPRP,-0.00536
17,RRIRARPPRLPRPRPRPSVYPRP,-0.138
18,RRIRYRPPRLPRPRPRPKQWPRP,0.0575
19,RRIRQRPPRLPRPRPRPASMPRP,-0.39
20,RRIRVRPPRLPRPRPRPVAAPRP,0.368
21,RRIRCRPPRLPRPRPRPNHSPRP,-0.936
22,RRIRRRPPRLPRPRPRPMDIPRP,-0.168

row,Sequence,shrunken log2 fold change
1,RRIRPRPPRLPRPRPRPNCWPRP,1.74
2,RRIRGRPPRLPRPRPRPSSMPRP,-0.0636
3,RRIRIRPPRLPRPRPRPLSTPRP,-0.599
4,RRIRFRPPRLPRPRPRPLLAPRP,0.176
5,RRIRERPPRLPRPRPRPRIEPRP,-0.0877
6,RRIRMRPPRLPRPRPRPSNGPRP,-0.0373
7,RRIRCRPPRLPRPRPRPEINPRP,0.122
8,RRIRRRPPRLPRPRPRPEMFPRP,-0.151
9,RRIRCRPPRLPRPRPRPTFFPRP,0.114
10,RRIRPRPPRLPRPRPRPIMGPRP,-0.233
11,RRIRIRPPRLPRPRPRPCCGPRP,-0.252
12,RRIRHRPPRLPRPRPRPDPQPRP,0.108
13,RRIRVRPPRLPRPRPRPFNHPRP,-0.106
14,RRIRCRPPRLPRPRPRPRPQPRP,0.776
15,RRIRTRPPRLPRPRPRPKSHPRP,-0.365
16,RRIRSRPPRLPRPRPRPSTSPRP,-0.455
17,RRIRGRPPRLPRPRPRPFAPPRP,1
18,RRIRQRPPRLPRPRPRPASHPRP,0.189
19,RRIRRRPPRLPRPRPRPERVPRP,0.125
20,RRIRCRPPRLPRPRPRPPWQPRP,0.389
21,RRIRVRPPRLPRPRPRPMTHPRP,-0.352
22,RRIRERPPRLPRPRPRPVVCPRP,0.0991

row,Sequence,shrunken log2 fold change
1,RRIRYRPPRLPRPRPRPSTLPRP,-0.853
2,RRIRHRPPRLPRPRPRPMKTPRP,-0.0218
3,RRIRTRPPRLPRPRPRPGTQPRP,-0.036
4,RRIRPRPPRLPRPRPRPKTVPRP,-0.171
5,RRIRYRPPRLPRPRPRPSCAPRP,-0.921
6,RRIRGRPPRLPRPRPRPFPKPRP,0.0687
7,RRIRWRPPRLPRPRPRPDLFPRP,0.133
8,RRIRFRPPRLPRPRPRPACGPRP,0.0797
9,RRIRKRPPRLPRPRPRPTQYPRP,0.0924
10,RRIRHRPPRLPRPRPRPGKKPRP,-0.0335
11,RRIRQRPPRLPRPRPRPAKYPRP,-0.0291
12,RRIRERPPRLPRPRPRPGVQPRP,-0.351
13,RRIRLRPPRLPRPRPRPKTPPRP,0.526
14,RRIRCRPPRLPRPRPRPTDRPRP,0.15
15,RRIRHRPPRLPRPRPRPILYPRP,-0.123
16,RRIRRRPPRLPRPRPRPPRVPRP,1.18
17,RRIRNRPPRLPRPRPRPALMPRP,0.15
18,RRIRHRPPRLPRPRPRPDSHPRP,-0.0191
19,RRIRTRPPRLPRPRPRPQCTPRP,-0.175
20,RRIRYRPPRLPRPRPRPRDVPRP,-0.0023
21,RRIRYRPPRLPRPRPRPKCFPRP,-0.0925
